Test: yeast display, Sf9 membrane polyspecificity reagent, FACS + sequencing; frameworks hold sequencing errors
Summary of the method: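 Galactose induction of a Saccharomyces cerevisiae BJ5465 synthetic nanobody display library ran 36–48 hours. The cells were then stained for 1 hour at 4 °C with 10% biotinylated, detergent-solubilized Sf9 membrane reagent, pulled down on streptavidin microbeads and FACS-sorted into low and high (top ~1%) gates on expression and reagent-binding fluorescence. Labels for polyreactivity follow the gate of origin.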

Row | Sequence | polyreactivity (PSR sort gate)
1 | QVQLVESGGGLVQAGGSLRLSCAASGSIFWGYAMGWYRQAPGKERELVAAITRGDTTNYADSVKGRFTISRDNAKNTVYLQMNSLKPEDTAVYYCAATPDPPHTYEYWGQGTQVTVSS | low polyreactivity
2 | QVQLVESGGGLVQAGGSLRLSCAASGSIFWGYAMGWYRQAPGKERELVATIPNRGGSTYYADSVKARFTISRDNAKNTVYLQMNSLKPEDTAVYYCAVERDYWTKASYYWGRGTQVTVSS | low polyreactivity
3 | QVQLVESGGGLVQAGGSLRLSCAASGSIFWINAMGGYRQAPGKEREVVADIDVSGGSTYYADSVKGRFTISRDNAKNTVYLQMNSLKPEDTAVYYCAADAWVRTYHYGYWGQGTQVTVSS | low polyreactivity
4 | QVQLVESGGGLVQAGGSLRLSCAASGSIFWKYAMGWYRQAPGKERELVAAISWSDGSTYYADSVKGRFTISRDNAKNTVYLQMNSLKPEVTAVYYCNTPPQWLGRYITITFDYWGQGTQVTVSS | low polyreactivity
5 | QVQLVESGGGLVQAGGSLRLSCAASGSIFWLYAMGWYRQAPGKERELVAAINWSTGRTYYADSVKGRFTISRDNAKNTVYLQMNSLKPEDTAVYYCAADLNWWFDYSSPDEMYYWGQGTQVNVSS | high polyreactivity
6 | QVQLVESGGGLVQAGGSLRLSCAASGSIFWLYAMGWYRQAPGKERELVASITGGGSTNYADSVKGRFTISRDNAKNTVYLQMNSLKPEDTAVYYCAKRYYRPGRKRTGLDYWGQGTQVTVSS | high polyreactivity
7 | QVQLVESGGGLVQAGGSLRLSCAASGSIFWPNTMGWYRQAPGKERELVATISSGGDTSYADSVKGRFTISRDNAKNTVYLQMNSLKPEDTAVYYCAKRITVDDVHPRAQTYNYWGQGTQVTVSS | low polyreactivity
8 | QVQLVESGGGLVQAGGSLRLSCAASGSIFWPYAMGWYRQAPGKEREFVDAITWSGGSTYYADSVKGRFTISRDNAKNTVYLQMNSLKPEDTAVYYCAAVPYTRWKGADGDYWGQGTQVTVSS | high polyreactivity
9 | QVQLVESGGGLVQAGGSLRLSCAASGSIFWPYTMGWYRQAPGKEWELVAAITSTDSTDYADSVKGRFTISRDNAKNTVYLQMNSLKPEDTAVYYCNADYQSRTGSVIYTAHPYDYWGQGTQVTVSS | low polyreactivity
10 | QVQLVESGGGLVQAGGSLRLSCAASGSIFWRNAIGWYRQAPRKERELVAAISRVGSTNYADSVKGRFTISRDNAKNTVYLQMTSLKPEDTAVYYCAKDSIWRVYEYDYWGQGTQVTVSS | low polyreactivity
11 | QVQLVESGGGLVQAGGSLRLSCAASGSIFWRNAMGWYRQAQGKEREFVATITWSGDSTYYADSVKGRFTISRDNAKNTVYLQMNSLKPEDTAVYYCATDWRNWGYDSWGQGTQVTVSS | low polyreactivity
12 | QVQLVESGGGLVQAGGSLRLSCAASGSIFWRYAMGWDRQAPGKERELVATITSRGGSTYYADSVKGRFTISRDNAKNTVYLQMNSLKPEDTAVYYCAATGLPGYYAYDYWGQGTQVTVSS | low polyreactivity
13 | QVQLVESGGGLVQAGGSLRLSCAASGSIFWRYAMGWYRQAPGKERELVAAISSSGSTYYADSVKGRFTISRDNAKNTVYLQMNSLKPEDTAVYYCAKRASALLRHSYDYWGQGTQVSVSS | low polyreactivity
14 | QVQLVESGGGLVQAGGSLRLSCAASGSIFWRYDMGWLDRRLGKKGSSLPLLLVLVTTRTTQTPVKGRFTISRDNAKNTVYLQMNSLKPEDTAVYYCAADLRASGLKYEYWGQGTQVTVSS | low polyreactivity
15 | QVQLVESGGGLVQAGGSLRLSCAASGSIFWRYTMGWYRQAPGKERELVAAISTRGGSTYYADSVKGRFTISRDNAKNTVYLQMNSLKPEDTAVYYCNAVEGSRLPYDYWGQGTQVTVSS | low polyreactivity
16 | QVQLVESGGGLVQAGGSLRLSCAASGSIFWSNAMGWYRQEPVKEREMVARISTSGGRTYYADSVKGRFTISRDNAKNTVYLQMNSLKPEDTAVYYCADDPYRWYYSTFYYWGQGTQVTVSS | high polyreactivity

Row | Sequence | polyreactivity (PSR sort gate)
17 | QVQLVESGGGLVQAGGSLRLSCAASGSIFWSYAMGWYRQAPGKEREFVAAISGGDGTTYYADSVKGRFTISRDNAKNTVYLQMNSLKPEDTAVYYCNAVGYWYGSLEYDYWGQGTQVTVSS | low polyreactivity
18 | QVQLVESGGGLVQAGGSLRLSCAASGSIFWSYAMGWYRQAPGKERELVAAITYSGTSTYYADSVKGRFTISRDNAKNTVYLQMNSLKPEDTAVYYCNADAYVYFDDGDYWGQGTQVTVSS | low polyreactivity
19 | QVQLVESGGGLVQAGGSLRLSCAASGSIFWTNAMGWYRQAPGKERELVAAIRVSTGSTYYADSVKGRFTISRDNAKNTVYLQMNSLKPEDTAVYYCAARTYGWGYDYWGQGTQVTVSS | low polyreactivity
20 | QVQLVESGGGLVQAGGSLRLSCAASGSIFWWYGMGWDRQAPGKERELVADITSGGGTYYADSVKGRFTISRDNAKNTVYLQLNSLKPEDTAVYYCAADVRAYRFDYYFDYWGQGTQVTVSS | low polyreactivity
21 | QVQLVESGGGLVQAGGSLRLSCAASGSIFWYNTMGWYRQAPGKERELVAAISYRGGRTYYADSVKGRFTISRDNAKNTVYLQMNSLKPEDTAVYYCNAPRYLGGGQDALGDYWGQGTQVTVSS | high polyreactivity
22 | QVQLVESGGGLVQAGGSLRLSCAASGSIFWYNTMGWYRQAPGKERELVAAITFSGGSTYYADSVKERFTISRDNAKNTVYLQMNSLKPEDTAVYYCAAVFYSAVGYYYWGQGTQVTVSS | low polyreactivity
23 | QVQLVESGGGLVQAGGSLRLSCAASGSIFYAYAMGWYRQAPGKERELVATISRGVNTNYADSVKGRFTISRDNAKNTVYLQMNSLKPEDTAVYYCNARLRYGHGYGYWGQGTQVTVSS | low polyreactivity
24 | QVQLVESGGGLVQAGGSLRLSCAASGSIFYDNAMGWSRQAPGKERELVASIRWSGDSTYYADSVKGRFTISRDNAKNTVYLQMNSLKPEDTAVYYCAADPVEPYFTAIAYDYWGQGTQVTVSS | low polyreactivity
25 | QVQLVESGGGLVQAGGSLRLSCAASGSIFYDYAMGCYRQAPGKERELVDRISSGGSTYYADSVKGRFTISRDNAKNTVYLQMNSLKPEDSAVYYCNAGVEFAASLYYSDNYDYWGQGTQVTVSS | low polyreactivity
26 | QVQLVESGGGLVQAGGSLRLSCAASGSIFYDYAMGWYRQAPGKERELVAAITASGGSTYYADSVKGRFTISRDNAKNTVYLQMNSLKPEDTAVYYCAAESESYEQVGEMDSWGQGTQVTVSS | low polyreactivity
27 | QVQLVESGGGLVQAGGSLRLSCAASGSIFYDYTMGWYRQAPGKERELVAAINSGGSTNYADSVKGRFTISRDNAKNTVYLQMNSLKPEDTAVYYCAAVRYNSRVSTTPSEMYYLGQGTQVTVSS | low polyreactivity
28 | QVQLVESGGGLVQAGGSLRLSCAASGSIFYENAMGWYRQAPGKERELVAAIRDSGGSTYYADSVKGRFTISRDNAKNTVYLQMNSLKPEDTAVYYCNAVPVYYDYDYWGQGTQVTVSS | low polyreactivity
29 | QVQLVESGGGLVQAGGSLRLSCAASGSIFYFNAMGWYRQAPGKERELVAAISSGGGTNYADSVKGRFTISRDNAKNTVYLQMNSLKPEDTAVYYCAAAVSLFYPTWYYFSYDYWGQGTQVTVSS | low polyreactivity
30 | QVQLVESGGGLVQAGGSLRLSCAASGSIFYFNAMGWYRQAPGKERELVAAISTSGGSTYADSVKGRFTISRDNAKNTVYLQMNSLKPEDTAVYYCAADYLTSRSRTFDYWGQGTQVTVSS | low polyreactivity
31 | QVQLVESGGGLVQAGGSLRLSCAASGSIFYFNAMGWYRQAPGKERELVATIRSGDGRTYYADSVKGRFTISRDNAKNTVYLQMNSLKPEDTAVYYCNASRVVYRQAYLYGYDYWGQGTQVTVSS | low polyreactivity

Source: the nanobody polyreactivity screen of Harvey et al. (2022)
